Results from PMC3902126.
Where two headings read alike, the source gives them in different places.

Legend:
[1] = biological target: Brucella abortus RicA (Rab2 interacting conserved protein A), His6-RicA (1-175) (Brucella abortus); experiment: ITC
[2] = biological target: Brucella abortus RicA (Rab2 interacting conserved protein A), His6-RicA (1-175) (Brucella abortus); experiment: ITC; remark: listed apart in the source

## Homo sapiens Rab2 (1-212) (from UniProt P61019 1-212) (natural protein)
[1]
  Kd: 36 µM
[2]
  Kd: 40 µM
